The chains are these.
B1: SARS-CoV-2 nsp14 (enzyme)
chain: AENVTGLFKDCSKVITGLHPTQAPTHLSVDTKFKTEGLCVDIPGIPKDMTYRRLISMMGFKMNYQVNGYPNMFITREEAIRHVRAWIGFDVEGCHATREAVGTNLPLQLGFSTGVNLVAVPTGYVDTPNNTDFSRVSAKPPPGDQFKHLIPLMYKGLPWNVVRIKIVQMLSDTLKNLSDRVVFVLWAHGFELTSMKYFVKIGPERTCCLCDRRATCFSTASDTYACWHHSIGFDYVYNPFMIDVQQWGFTGNLQSNHDLYCQVHGNAHVASCDAIMTRCLAVHECFVKRVDWTIEYPIIGDELKINAACRKVQHMVVKAALLADKFPVLHDIGNPKAIKCVPQADVEWKFYDAQPCSDKAYKIEELFYSYATHSDKFTDGVCLFWNCNVDRYPANSIVCRFDTRVLSNLNLPGCDGGSLYVNKHAFHTPAFDKSAFVNLKQLPFFYYSDSPCESHGKQVVSDIDYVPLKSATCITRCNLGGAVCRHHANEYRLYLDAYNMMISAGFSLWVYKQFDTYNLWNTFTRLQ

One data set has as its target SARS-CoV-2 nsp13 (SARS-CoV-2, UniProt P0DTD1 5325-5925). Kind of data set: cryo-EM structure.
For a further data set, the target named is SARS-CoV-2 nsp12 (SARS-CoV-2, UniProt P0DTD1). Kind of data set: cryo-EM structure.
The data set “nsp12 (RdRp with …)” concerns the target nsp12 (RdRp with NiRAN);nsp7;nsp8;nsp9;nsp13 helicase;nsp10;nsp14 (ExoN / N7-MTase) (SARS-CoV-2;SARS-CoV-2;SARS-CoV-2;SARS-Co …, UniProt P0DTD1;P0DTD1;P0DTD1;P0DTD1;P0DTD1;P0DTD1;P0DTD1 …, ||||||). Kind of data set: cryo-EM structure.
The target in the data set “SARS-CoV-2 nsp14” is B1. Kind of data set: SEC. On the technique in general: SEC sorts molecules by how far they enter the pores of the column.

B1: the binding result with SARS-CoV-2 nsp13 and with SARS-CoV-2 nsp12 was “binds” throughout.

B2: template-primer RNA (dsRNA)
RNA 1: CAUGCCAUGGCCUCUAAAAUGUCAGCUGCUCCCUAGCAUGCUACUACCGCGUAGCAUG
RNA 2: GCGGUAGUAGCAUGCUAGGGAGCAG
On to B2, for which the binding result with nsp12 (RdRp with …) is on record as “binds”.

B3: nsp9-nsp10 fusion protein (other)
chain: NNELSPVALRQMSCAAGTTQTACTDDNALAYYNTTKGGRFVLALLSDLQDLKWARFPKSDGTGTIYTELEPPCRFVTDTPKGPKVKYLYFIKGLNNLNRGMVLGSLAATVRLQAGNATEVPANSTVLSFCAFAVDAAKAYKDYLASGGQPITNCVKMLCTHTGTGQAITVTPEANMDQESFGGASCCLYCRCHIDHPNPKGFCDLKGKYVQIPTTCANDPVGFTLKNTVCTVCGMWKGYGCSCDQLREPMLQ
Turning to B3, the binding result with SARS-CoV-2 nsp14 and in the data set with SARS-CoV-2 nsp12 was “binds” in each case.

(Values after PMC8142856 (Cell, 2021).)
